Experimental data from patent publication US20200347144A1 (SHANGHAI HYAMAB BIOTECH, published 2020).

Tests used:
[1] = biological target: T1, human 4-1BB, full length, on transfected cells (human, UniProt Q07011 24-255); assay: FACS, CHOK1-h4-1BB cells; Ab 0.016 ug/ml
T1 construct: whole, on cells; also called CHOK1-h4-1BB
Source text: (§1) The pIRES plasmid carrying the full-length gene of monkey-derived […] (the preparation method is the same as the preparation method of the pCpC vector carrying the human-derived IgG Fc fragment (hFc) in “Preparation of immunogen A” of the step (1) in Example 1, in which the database accession number of the amino acid sequence of the extracellular region of monkey 4-1BB protein (Phe19-Thr239) is G7PSE7) was transfected into CHOK1 cell line to obtain CHOK1 stable transfected cell line containing monkey 4-1BB (herein referred to as CHOK1-c4-1BB stable cell line). The CHOK1-h4-1BB stable cell line and the CHOK1-c4-1BB stable cell line were expanded and cultivated to 90% confluence in T-75 cell culture flasks. The medium was exhausted, and washed twice with HBSS buffer (Hanks Balanced Salt Solution, purchased from Invitrogen), and then the cells were treated and collected with enzyme-free cell dissociation solution (Versene solution, purchased from Life Technology). The cells were washed twice with HBSS buffer, and after cell counting, the cells were diluted with HBSS buffer to 2×10⁶ cells per ml, and 1% goat serum blocking solution was added, the percentage being the mass percentage. It was incubated on ice for 30 minutes, and then washed twice with HBSS buffer by centrifugation. The collected cells were suspended in FACS buffer (HBSS containing 1% BSA, the percentage was the mass percentage) to 2×10⁶ cells/mL, and 100 μl per well was added to a 96-well FACS reaction plate. The purified 4-1BB antibody test sample obtained in Example 2 was added, 100 microliters per well and incubated on ice for 2 hours. […] It was washed three times with FACS buffer by centrifugation, and 100 μl of fixative [4% (v/v) paraformaldehyde] per well was added to suspend cells, and washed twice with FACS buffer after 10 minutes by centrifugation. The cells were suspended with 100 microliters of FACS buffer, and the results were detected and analyzed with FACS (FACS Calibur, purchased from BD).

[2] = biological target: T2, monkey 4-1BB on CHOK1 cells (monkey); assay: FACS, CHOK1-c4-1BB cells; Ab 0.0032 ug/ml
T2 construct: whole, on cells; also called CHOK1-c4-1BB
Source text: as §1

[3] = biological target: T1, human 4-1BB, full length, on …; assay: FACS, CHOK1-h4-1BB cells; Ab 2 ug/ml
Source text: as §1

[4] = biological target: T1, human 4-1BB, full length, on …; assay: FACS, CHOK1-h4-1BB cells; Ab 0.00013 ug/ml
Source text: as §1

[5] = biological target: T2, monkey 4-1BB on CHOK1 cells; assay: FACS, CHOK1-c4-1BB cells; Ab 10 ug/ml
Source text: as §1

[6] = biological target: T1, human 4-1BB, full length, on …; assay: FACS, CHOK1-h4-1BB cells; Ab 10 ug/ml
Source text: as §1

[7] = biological target: T1, human 4-1BB, full length, on …; assay: FACS, CHOK1-h4-1BB cells; Ab 0.00064 ug/ml
Source text: as §1

[8] = biological target: T2, monkey 4-1BB on CHOK1 cells; assay: FACS, CHOK1-c4-1BB cells; Ab 0.016 ug/ml
Source text: as §1

[9] = biological target: T1, human 4-1BB, full length, on …; assay: FACS, CHOK1-h4-1BB cells; Ab 0.08 ug/ml
Source text: as §1

[10] = biological target: T1, human 4-1BB, full length, on …; assay: FACS, CHOK1-h4-1BB cells; Ab 0.4 ug/ml
Source text: as §1

[11] = biological target: T2, monkey 4-1BB on CHOK1 cells; assay: FACS, CHOK1-c4-1BB cells; Ab 0.4 ug/ml
Source text: as §1

[12] = biological target: T3, hFc-tagged human 4-1BB extracellular domain protein (4-1BB-hFc) (human, UniProt Q07011 24-186, limits assumed); assay: ELISA, coated human 4-1BB-hFc; Ab 0.0032 ug/ml
T3 construct: also called immunogen A; 4-1BB^ECD-hFc; not shown: human IgG Fc fragment (hFc) of the pCpC vector
Protocol: (§2) The purified immunogen A (4-1BB-hFc), monkey 4-1BB-his, and mouse 4-1BB-his obtained in Example 1 [for the preparation method, see step 1 of Example 1, preparation of immunogen A], of which the extracellular domain of monkey-derived 4-1BB protein (purchased from ACRO biosystems), the extracellular domain of mouse 4-1BB protein (purchased from sino biological) or other immune detection point proteins respectively were diluted with PBS to a final concentration of 1.0 μg/mL, then added with […] per well to 96-well ELISA plate. It was sealed with plastic film and incubated at 4° C. overnight. The next day, the plate was washed twice with the plate-washing solution [PBS containing 0.01% (v/v) Tween20] and blocking solution [PBS containing 0.01% (v/v) Tween 20 and 1% (v/v) BSA] was added and blocked at room temperature for 2 hours. The blocking solution was discarded and 100 μl of the purified 4-1BB antibody obtained in Example 2 was added per well. After incubated at 37° C. for 2 hours, the plate was washed 3 times with a plate-washing solution [PBS containing 0.01% (v/v) Tween20]. A secondary antibody (purchased from Sigma) labeled with HRP (horseradish peroxidase) was added, and after incubated at 37° C. for 2 hours, the plate was washed 3 times with a plate-washing solution [PBS containing 0.01% (v/v) Tween20]. 100 μl of TMB substrate was added per well. After incubated for 30 minutes at room temperature, 100 μl of stop buffer (1.0N HCl) was added per well. The A450 nm values were read using an ELISA plate reader (SpectraMax 384plus, Molecular Device).

[13] = biological target: T3, hFc-tagged human 4-1BB extracellular …; assay: ELISA, coated human 4-1BB-hFc; Ab 0.0006 ug/ml
Protocol: as §2

[14] = biological target: T3, hFc-tagged human 4-1BB extracellular …; assay: ELISA, coated human 4-1BB-hFc; Ab 0.4 ug/ml
Protocol: as §2

T1 sequence (Q07011 24-255): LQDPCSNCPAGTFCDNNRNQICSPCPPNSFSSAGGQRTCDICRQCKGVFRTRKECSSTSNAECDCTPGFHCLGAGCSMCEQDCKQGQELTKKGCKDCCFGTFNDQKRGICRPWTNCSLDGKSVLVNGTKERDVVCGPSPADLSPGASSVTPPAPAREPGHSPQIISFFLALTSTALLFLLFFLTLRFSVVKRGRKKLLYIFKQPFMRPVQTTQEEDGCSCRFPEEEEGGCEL

Binder	average fluorescence intensity [1]	average fluorescence intensity [2]	average fluorescence intensity [3]	average fluorescence intensity [4]	average fluorescence intensity [5]	average fluorescence intensity [6]	average fluorescence intensity [7]	average fluorescence intensity [8]	average fluorescence intensity [9]	average fluorescence intensity [10]	average fluorescence intensity [11]	OD450 nm [12]	OD450 nm [13]	OD450 nm [14]
113F6C6 (antibody, V domains shown, also called 4-1BB fully human antibody 113F6C6; 113F6F6) VH: QVQLVESGGGVVQPGRSLRLSCAASGLTFSSYGMHWVRQAPGKGLEWVAVIWYDGSNKYYADSVKGRFTISRDNSKNTLYLQMNSLRAEDTAVYYCAREEVLWFGELSYNYYYGMDVWGQGTTVTVSS VL: DIQMTQSPSSLSASVGDRVTITCRASQGISNYLAWYQQKPGKVPKLLIYAASTLQSGVPSRFSGSGSGTDFTLTISSLQPEDVATYYCQKYNSVPLTFGGGTKVEIK	46.2 MFI	15.1 MFI	477 MFI	2.7 MFI	426 MFI	405 MFI	4.8 MFI	51.5 MFI	154 MFI	323 MFI	357 MFI			
52F4G2 (antibody, V domains shown) VH: QVQLQESGPGLVKPSETLSLTCAVSGYSISSGYYWGWIRQPPGKGLEWIGSIFHSGSSYYNPSLKSRVTISVDTSKNQFSLKLRSVTAADTAVYYCARESSGWNCFDYWGQGTLVTVSS VL: DIQMTQSPSTLSASVGDRVTITCRASQTISTWLAWYQQKPGKAPKLLIYKASNLESGVPSRFSGSGSGTEFTLTISSLQPDDFATYYCQQYNSYSITFGQGTRLEIK	141 MFI	13.7 MFI	600 MFI	4.8 MFI	736 MFI	615 MFI	11.7 MFI	41.2 MFI	410 MFI	584 MFI	469 MFI	0.89 OD450 nm	0.34 OD450 nm	3.09 OD450 nm
23G3B8 (antibody, V domains shown) VH: QVQLQESGPGLVKPSETLSLTCAVSAYSISSGYYWGWIRQPPGKGLEWIGSIFHSGSNYYNPSLKSRVTISVDPSKNQFSLKLSSVTVADTAVYYCARESSGYNCFDYWGQGTLVTVSS VL: not shown	126 MFI	10.8 MFI	619 MFI	4.6 MFI	595 MFI		11.2 MFI	34.2 MFI	399 MFI	541 MFI	392 MFI	0.28 OD450 nm	0.1 OD450 nm	2.77 OD450 nm
57B3D10 (antibody, V domains shown, also called 4-1BB fully human antibody 57B3D10) VH: QVQLQESGPGLVKPSETLSLTCTVSGGSISSYYWSWIRQPPGKGLEWIGYIYYSGSTNYNPSLKSRVTISVDTSKSQFSLKLTSVTAADTAVYYCAKDSDYYGSGSYSYWYFDLWGRGTLVTVSS VL: EIVMTQSPATLSVSPGERATLSCRASQSVSSNLAWYQQKPGQAPRLLIYGASTRAPGIPARFSGSGSGTEFTLTISSLQSEDFAVYYCQQYNNWPLTFGGGTKVEIK	148 MFI	15 MFI	555 MFI	4.9 MFI	581 MFI	538 MFI	12.5 MFI	63.5 MFI	389 MFI	490 MFI	549 MFI			

More lines, now with the values ahead:

average fluorescence intensity [1]	average fluorescence intensity [2]	average fluorescence intensity [3]	average fluorescence intensity [4]	average fluorescence intensity [5]	average fluorescence intensity [6]	average fluorescence intensity [7]	average fluorescence intensity [8]	average fluorescence intensity [9]	average fluorescence intensity [10]	average fluorescence intensity [11]	OD450 nm [12]	OD450 nm [13]	OD450 nm [14]	Binder
48.8 MFI	8.5 MFI	736 MFI	2.6 MFI	700 MFI	735 MFI	4.9 MFI	25.9 MFI	183 MFI	540 MFI	304 MFI	0.48 OD450 nm	0.19 OD450 nm	3.5 OD450 nm	170D7F2 (antibody, V domains shown) VH: QVQLVQSGAEVKKPGASVKVSCKASGYTFTSYDINWVRQATGQGLEWMGWMNPNSGNTGYAQKFQGRVTMTRNTSISTAYMELSSLRSEDTAVYYCARETGPFDYWGQGTLVTVSS VL: DIQMTQSPSSLSASVGDRVTITCRASQRINNYLNWYQQKPGKAPKLLIYGASSLQSGVPSRFSGSGSGTDFTLTISSLQPEDFATYYCQQSYSTPFTFGPGTKVDIK
125 MFI	11.8 MFI	540 MFI	4.4 MFI	735 MFI	527 MFI	10.8 MFI	41.2 MFI	346 MFI	508 MFI	408 MFI	0.54 OD450 nm	0.44 OD450 nm	2.73 OD450 nm	118F3A2 (antibody, V domains shown) VH: QVQLQQWGAGLLKPSETLSLTCGVYGGSFSTNYWSWIRQSPGKGLEWIGEINHSGNTEYNPSLKSRLTISIDTSKNQFSLKLTSVTAADTAVYYCARMGYHSPSFDFWGQGVLVTVSS VL: KIVMTQSPATLSVSPGERATLPCRVSQGIGSNLAWYQQKPGQAPRLLIYGASTRATGVPARFSGSGSGSEFTLTISSLQSEDLALYYCQQYNNWPLTFGGGTKVEIK
101 MFI	14.1 MFI	1920 MFI	4 MFI	601 MFI	2280 MFI	8.9 MFI	47.2 MFI	453 MFI	1520 MFI	466 MFI	0.34 OD450 nm	0.11 OD450 nm	2.79 OD450 nm	289B6G6 (antibody, V domains shown) VH: QVQLQESGPGLVRPSETLSLTCAVSGYSISSGYYWGWIRQPPGKGLEWIGSIFHSGNTYYNPSLKSRVIVSGDTSKNQFSLKLSSVTAADTAVYYCTRESSGFNVFDIWGQGTMVTVSS VL: not shown
